Results on two substances are retold here after article PMC8170832.

The target of this assay is endogenous HSF1 (heat shock factor 1), mouse embryonic fibroblasts (mouse (endogenous in MEFs)) (UniProt P38532). Description: co-IP.
Sequence of UniProt P38532 (P38532 whole entry): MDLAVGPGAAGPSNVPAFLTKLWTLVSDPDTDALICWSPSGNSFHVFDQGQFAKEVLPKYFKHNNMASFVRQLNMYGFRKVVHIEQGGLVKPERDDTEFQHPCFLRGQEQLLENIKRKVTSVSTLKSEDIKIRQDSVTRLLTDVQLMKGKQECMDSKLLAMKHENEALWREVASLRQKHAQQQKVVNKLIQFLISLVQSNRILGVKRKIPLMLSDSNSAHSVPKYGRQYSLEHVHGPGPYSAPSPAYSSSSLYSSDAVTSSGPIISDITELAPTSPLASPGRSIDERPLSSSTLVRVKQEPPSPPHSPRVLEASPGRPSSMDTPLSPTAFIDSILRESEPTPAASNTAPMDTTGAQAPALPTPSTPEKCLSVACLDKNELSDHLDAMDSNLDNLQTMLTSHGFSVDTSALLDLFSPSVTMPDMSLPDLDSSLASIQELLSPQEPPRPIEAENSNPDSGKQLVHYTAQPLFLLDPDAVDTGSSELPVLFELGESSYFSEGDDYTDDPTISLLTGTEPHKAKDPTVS

As for “endogenous phospho-AMPKα (Thr172), mouse embryonic fibroblasts (from UniProt Q5EG47 1-559; Q9R078 1-270; Q91WG5 1-566) (complex)”, the percent of phospho-AMPKα depleted by IP of HSF1 was 25%. Substance “endogenous AMPK (AMP-activated protein kinase), mouse embryonic fibroblasts (from UniProt Q5EG47 1-559; Q9R078 1-270; Q91WG5 1-566) (complex)” gave a percent of total cellular AMPKα depleted by IP of HSF1 of 66%.
